Experiment: soluble fraction after stress (log2 fold change); higher = more stays soluble; pooled small domains, quantitative proteomics
Conditions: stress: pH 4
In short: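 Pooled custom libraries of small protein domains were subjected to pH 4 and measured by high-throughput quantitative proteomics. The log2 fold change in soluble amount per domain is reported, higher values meaning more remained soluble. This is used as a measure of aggregation propensity.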

Row | Sequence | soluble fraction (log2)
1 | HMIFRPALITDLDAVERHYTELLTREAETGRSSTNWSLGVYPTRQTATAAQAAGTLWVLEREGQVVASVI | -0.552
2 | HMEVGKRIAEIRKENRMSQEQFGQLFHVTRQTVSNWENAKSYPDLQTLVKISELFEITMDELLK | -0.454
3 | HMTVDYDKFTKDTVVQHNKFGKGVIIMTSGDGEDKIASIAFQGLGVKRFSLAIAASNLKILGKVNED | -0.195
4 | HMDISPAAKQRLALIQPLLEKNAEAITDRKLRNAVAKDIANNQNTTVRRVLRLYYRYLATGQVM | 0.158
5 | HMPQLEDLEPLDSSGMVRRDGPHLVLAVGRHRGRHLEEVRDSDPSYLHWLLSPKGIEDIQAKEDIKTYLNL | -0.302
6 | HMPVPSPAEQTATQLANIERHTGITVDGWTRAIAEAGAAKHGEIVAWLKQQGLTHGNANALAHAVRARQSG | 0.173
7 | HMENFSTLFSRLKEERGLSNKQISSFTGAPIKEVKKWESGMGIPTEKRIVAALEGILGSEISKAI | 0.353
8 | HMDVTDRLARRLQGLRSAQGLSLDALAARSGVSRSNISLIERGQSSPTATVLDKLSAALGVTLAALFEEP | 0.00664
9 | HMQFQVHEIKGKEYYIHVVEKGNTLYAISRMYSVPIETLKEENPRLNTTELTIGDRLLIPLDEVKRKNIE | -0.316
10 | HMGILPDDVKLNIKEAKKIGFPIMLKAIHGGGGRGMMIVQSEDEFADAMKITKTEAKNSFGNGDLYFEKFF | 0.0153
11 | HMSKTQYTFKEVGSQFQLFAPSTKHTIMISADHPKYGWLTNQDQGRVINVYDTGKMTSSQDYYGLYKEVT | -0.589
12 | HMSMSVLFSELDQKDAGVIVEKLKERKIPYELQSGGSAIMVPANVLHETRLQLAAEGLPQSS | 0.0876
13 | HMDVMNEIQQKAFDIYIQSASLKNDFTPISERALAKKLHDMGLKSSMSAIGRWKKKFGWVQSLQNKVTLA | -0.183
14 | HMITERVPVPDLTGMPLMEAIKTLNSSKLQYQVVGSVIEGDENRIIDQTPKPDIMVSEKSIVLLYLETYRG | -0.338
15 | HMGFSLEQFGTDPDLKKIVENAFERIITASEGRIFKSDFSSNNSALPLEIFSFLIAVILLKLSGMN | -0.489
16 | HMVSRKIENPYWANKEKQHIIAEFFYPDTNKRVTASIMNDGSNRDYEEILRGYSIEQIDANTNRRLEER | -0.811
17 | HMGEKVIAVSGGFDPIHVGHLRMMQDAAQHGRLVVIVNSDEWLLKKKGYVFMPWEERAELIGAYDFVDE | -0.6
18 | HMIYYTEEELVKRYIDFSNYLGKKEGASDVDFKKYAVEFGIPSRDHYNRKFITLFNLKIKAGYKPIRH | -1.13
19 | HMENEIPVPELVGMSEADAAAKLASLGLERDTQREATADEESVGKVLRQEPTPGEYVDEGHKVTIWVGE | 0.22
20 | HMSISEADAKKIALEKVPGATDSNLRIKTDYDDGIMKYEVKIVYNEMKYEFDIDAATGTILEWESESVY | 0.277
21 | HMPTPRVPMSKQRQILQLLQDGHLSTREIAAALHISKTSVGDIAKAARLAGLDWEAASKLSDEELSARIYK | 0.0991
22 | HMIKRETNDNPVDPASLSLGDRVKILTLNQNGEIISLPDEKGLLQVQVGIMKIGVNVSDIMLI | -0.413
23 | HMANIAVTIPTGSSGDRIADILLQAGLIKDKQDFNQAVIAAGAEGKLRAGYFVIPSNATPAEIISILT | -0.253
24 | HMRKKDGEAYVLPRPLKKGDSVLIYDIDKKGTVLQPPEKGGKTALIQAGIIQTRVPVSNLRLLE | -0.0646
25 | HMSSIGERISDVRKARGYTQDQLAERIHVSRQTISHWENERALPDFESIKQLSQVLGYDFSS | 0.0836

Row | Sequence | soluble fraction (log2)
26 | HMRGGWESLTDREREIAVLAAEGHSNRTIASTLFISDRTVQSHVSRALRALGVDSRTGIPSLVTTATR | -0.217
27 | HMHLKDEHGLTPKQRAFADEYVITLNATVSYKKIYSVKRDSVASTNGSRLLGNANVKAYIDKRLEE | 0.172
28 | HMALMLGGLIVYLNTTAPRDDIDLIELSKDTKAMAAFGNKLASPDYNGKQFALDWHELSRDEIMSKYFS | -1.82
29 | HMDAEELNSKAKDEFTWLEDDESETNLEYRKMVSSEDMAIVAKVAPALAAKLKYQLAHAATNMV | -0.529
30 | HMVPSTAVIFTELVSMRSEPATKSPVTHQLTKGTAITINEEKDGWYQVTDQTGNSGWIVKWAVKPTYFTNP | 0.31
31 | HMSLPKIVVPTDVTVSQLAKYLEVDAISIIKQLFGMGVVASLNQRLEDEIIQLIGNEFGKEIIFSE | -0.107
32 | HMGDLEEAVKDFSEAIRLNDSWAEAYANRAVVYAEQGDAAQSDQDAEKARLLGVDQNRLNEMLNAVNS | -0.21
33 | HMKTAWDELNEVIEAYRGQESALIEVLHKAQEIMGYLPRDVQEAIAEGLHVPLNKVYGVVSFYHHFSV | -0.204
34 | HMAKLTPDQQELRAIRIELQMSQPDFADAININVPRLSSYEYGRTAGVPTSIMEAARELKRSMSR | -0.324
35 | HMGKAYMVPDVKNKSVNQAQLLLADKHMNGVVVDSSYVKELPAGIVLDQTPVGGMKVKEGRTVYLTINSD | 0.0742
36 | HMTEQKNNEQQNAVNEKKQALKQLMEKGKEKGSLSYNEVNALLDKLEFTEDQKAIVYDQLHSEDIELQ | 0.22
37 | HMNDVEAIDDALKDLHKVSPDLAALVEMKFFGGMTEPEISEILGVSERTVRREWEKARAALLVLLE | -1.18
38 | HMFLSSEERRERIIEVLRQQDEVTVVELSHRLGVSEVTTRKDLQQLEEQGYLTRVRGGAVVSGRGQL | -0.458
39 | HMGPASTGAHQLGLKPGDEVTHRAWGEGVVTSTTGEGDRAEAVVDFDAVGEKRLLLAWAPLER | -0.705
40 | HMVAPKTEEQQKMFLESIVTKRQAETLIEKYPNIVQDIIDGTDNVDLANLKGIGEHTYNLIKEKVLSNY | -0.159
41 | HMNRYPIQTEVHAFNDDIIKEAINFEMSRGGQIFFVNNRIPQLYELENTIHRLVPDARVVIGHGQMP | -0.722
42 | HMQDRDKNVPAGKELLDNEIARLNMSLKQVEQFALPRYNLKTLEDLYSGIGSGDIRLNHLINFLQSKLI | -0.892
43 | HMTPTRQATVSVAALNVREQPSLQGRRLGKLTQGTTLTVVGPPGEWLKIEYKGETGFVYASYTSLG | -0.0723
44 | HMGLDQNTLDRVDDINDTLATGIEIGPETRGTIEELNETLANGLKAGFDEETLARVDELLRVVEDGLK | -1.15
45 | HMRISKRQLILESAAAIINEKGADYLTLDAVAQRAGISKGGLFYHFKSKDELIKELVNYANN | -1.57
46 | HMITMADKIDTALSEMAANNEKINVSQVAKRLGISNSAIYKFNPEKIPDIQTAQKRQKHKAEAIAVGTEN | 0.0504
47 | HMDGQPLSERQQEILRWVAEGLSNREIGERLNITPNTVRDHLSEVMRRLEVSNRTSAVSTAFHLGLLP | -0.178
48 | HMRLPQEVWEKIRAAYEAHGLSFSELAEMYGVNKSNISRRAKAEGWNQAETQRLITATVENE | 0.211
49 | HMVSSEGLASGIERMLVEFGLETDKGRRFAMWSLLYMLGSAPDLDVAFKDPRDREAARTFMDLLDQANA | -0.99
50 | HMGVPELHKGEIVQAVVEKVLGEGLLRVNLKGMTVEAATSLRLNPGQQLLLRSEGIENGRQVLR | 0.042

Row | Sequence | soluble fraction (log2)
51 | HMSGRPPTYTAEERSAVIAAALSRPADLGLPFASWTLDRLVAYLGEKGIGMKRSRMSEVLLAEGLKW | -0.0116
52 | HMDPRTSSLTPQERKVLELVGGGLTNRQIAAEMFLAEKTVKNYVSSLLAKLGFERRTQAAVFIASPAF | -0.0756
53 | HMTDSLELADLLRRAIITGEYKPRERLVEMELAQKYSVSRTPVREALKHLEALGLVKMERYKGAMVAD | -0.573
54 | HMELEKIRPDLDGLEIMAILGISPSPIVGRAYQYLLDLRMDRGPLGPDAAKAELLNWWSLNQPK | -1.62
55 | HMDLKHNQITMRELLRNKQAYLLLYKEFPMFMTPAILQNIRPLTLQQIIQMVRPYISRPKLNMLLEQLENI | 0.22
56 | HMRTVLSDETYLRIREMLLTHDIAPGERINIDALARELDVSQTPVREALARLESEDLVTKEPLRGYTATK | -0.123
57 | HMSMEKNWVPSEDVIEILTRAGMNENFIRELIPEFIIYWSERKDVLISYDSKFIEHARLKWAQHNAE | 0.0608
58 | HMTYNIPEHYQTIDVKEYVRKLVSDGDSDQIGRVEMELTEFETRNLFPVLKVLIYIIDTMRK | -1.73
59 | HMYKTKVDIAYDMLMERITEGVYKPGEKLVITHISKELGISDIPVREAIRRLESEGYVKILPNQGAIVYD | -0.185
60 | HMSETQDQTTIEIEDMITVGTLAERLSIPVSTLIGELMKNGVMATVNEKIDFDTAQIIVGELKLPIELSKK | -0.269
61 | HMGELTNALATLSERERDVARLVAQGLDNRQIAAQLFLSEGTVRNRISDILDKLALTNRTQLAIAWLHAE | -0.615
62 | HMLLPGEELRVMIIQEGKEYGQGVGYLDDGTMVVVEDGQRALNRTENVVVTKVLQTTAGRMIFAK | -0.975
63 | HMIYKLTLLRDLPEAKAGFDFYLRGGLASHDGEEWFSWVTREPIYARLYWLYVEKREEWVLVEETDI | -2.47
64 | HMIITTPYKVTASAINIRSGRGTSYSIIGTVSKGQTVDVYNNSLSKGWVKVKFSGSVGYAYAKYLEK | -0.116
65 | HMRSIMAVSNYRHKKILEMVYQRKSVSADELAAEFGVSKITIRRDLDTLAMDKLLERTRGGAISISD | -0.128
66 | HMKLSALRDKIKEHLLRQIQNGELQVGKTINLAALSRVTGISVTPIREALTQLEQAQVIQAVPNRGFVVA | 0.184
67 | HMNPYLWQRVRLLFSNVGVINNSATVDLVFSAPKGVLTEDLANNFSAALVKKGKEELGLDDIKITISVIPN | -2.21
68 | HMGPDTVDRTRRFKWVDNEVVVNFGKNAGRTLRDLAENDPGFLRWIVRSDFSDEVRTIANDALMGKFPTRK | -0.151
69 | HMTHPQVEAYLDDLARMLADIDPGERDDILASVREHLDAEIAAGHGSDAVVNATLLRLGPPEQVAAAARTN | -0.899
70 | HMPDPLYLINGKIVNKSDFNNIDPRSIQSIEVLKANKALEAFGNDGKNGVIKITLKSSNDQM | 0.22
71 | HMDDYRIEDMMTVVEEQVIRQKETNLSWFFKRAGSLNEIITIFLAALELIKVHRVYVKQEHNFDDIILRKE | -0.872
72 | HMRKDWTPGAFVEAFVNDTPATRSTILAKAVSAGLSRWAADNLLRTADNDGLMVRQGSGKRNEPFTYRRGP | 0.22
73 | HMERYLLRDNIPNALHGERLDRVIAIMTGLSRSAVSALIKSNQVLRNGQIAQSISEKVVEGDELEVHLEP | -0.465
74 | HMVYNGYYAKSFNGYVVILNGDEKTVYEYTQIPIHLLPEDIRSSVMSGYYLENETDLYNFLENYS | -0.211
75 | HMVSLLDWAYKQVRRMLFSGDLPQGQKIVVAQLANQLSISPTPVKEALNRLAVEGLLEAVPRRGFQVR | -1.02

From the domain aggregation screens of Martell et al. (2025)
